The experiment concerns the target T1, FGFR4蛋白 (FGFR4 protein antigen, bought from Sino Biological / 义翘神州) (human, UniProt P22455 22-369, limits assumed).
T1 construct: also called FGFR4蛋白抗原; 成纤维细胞生长因子受体4
T1 sequence (looked up): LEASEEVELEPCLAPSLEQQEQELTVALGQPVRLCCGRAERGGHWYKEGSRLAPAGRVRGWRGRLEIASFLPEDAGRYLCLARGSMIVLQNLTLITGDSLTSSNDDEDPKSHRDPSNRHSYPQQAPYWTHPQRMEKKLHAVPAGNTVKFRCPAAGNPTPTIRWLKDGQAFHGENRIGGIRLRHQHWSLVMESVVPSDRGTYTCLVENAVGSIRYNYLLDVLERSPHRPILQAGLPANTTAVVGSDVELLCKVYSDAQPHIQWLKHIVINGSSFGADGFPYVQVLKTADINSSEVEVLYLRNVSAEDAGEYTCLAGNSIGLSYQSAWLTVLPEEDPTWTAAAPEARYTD
Description: BLI (OCTET K2), FGFR4 protein 10 ug/mL loaded on AHC sensors, 1B5 at 566.7-8.84 nM in solution.

What is called Kd is the equilibrium constant for the complex coming apart.

B1: 抗成纤维细胞生长因子受体4单克隆抗体1B5 (antibody, V domains shown)
VH: EVMLVQSGPELKKPGETVKISCKASGYTFTNFGMNWVKQAPGKGLKWMGWINTYTGEPTYADDFKGRFVFSLETSASTAYLQINNLKNEDTATYLCVRSSSGYVFDYWGQGTIVTVG
VL: DIVMTQSPSSLAVSAGEKVTMSCKSSQSLLNSRTRKNYLAWYQQKPGQSPKLLIYWASTRESGVPDRFTGSGSGTDFTLTISSVQAEDLAVYYCKQSYNLLTFGEGTKLEIT
notes: Mouse hybridoma antibody (BALB/c), purified from ascites on Protein G and detected with anti-mouse IgG second antibodies; also called 1B5抗体; FGFR4单克隆抗体
In the case of B1, the Kd was < 1 pM.

The values above are taken from patent publication CN114349860A (SHENZHEN GUEN BIOTECHNOLOGY CO LTD, dated 2022).
